Measured values reported in patent US20080139456A1, “Macrocyclic Sh2 Domain Binding Inhibitors” (priority 2005, published 2008).
Read-outs that look alike come from different tables or passages of the source.

How the values were obtained:
Grb2 SH2 domain protein = target: T1, Grb2 SH2 domain protein (Homo sapiens, UniProt P62993); assay: Biosensor (Biacore S51 surface plasmon resonance) direct binding to chip-bound Grb2 SH2 domain protein; conditions: binding affinity to Grb2 SH2 domain protein, complex binding kinetics
T1 construct: made in house
T1 sequence (P62993 60-152 limits assumed): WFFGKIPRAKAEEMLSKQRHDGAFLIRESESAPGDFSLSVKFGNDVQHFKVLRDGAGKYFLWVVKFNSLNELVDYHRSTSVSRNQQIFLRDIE
Experimental: Biosensor Analysis: Binding experiments were performed on a Biacore S51 instrument (Biacore Inc., Piscataway N.J.). All Biotinylated Grb2 SH2 domain proteins (b-Grb2) were expressed and purified (Protein Expression Laboratory and The Protein Chemistry Laboratory, SAIC—Frederick). The b-Grb2 was immobilized onto carboxymethyl 5′ dextran surface (CM5 sensor chip, Biacore Inc.) by amine coupling. The lyophilized b-Grb2 was reconstituted in fifty percent DMSO in H2O to make a stock solution of 1 mg/mL and stored at −80° C. A 1: 12.5 dilution of b-Grb2 was used for immobilization, by dilution in acetate buffer pH-5.0, with 5% DMSO. 1×PBS (phosphate buffered saline, pH 7.4) was used as the running buffer.
An immobilization wizard was used to optimize the immobilization target. For b-Grb2, 2500-5000 resonance units (RU) of protein were captured on the CM5 sensor chip. Small molecules were serially diluted in running buffer to the concentrations (1.25 nM-1500 nM) as indicated in each sensorgram and injected at 25° C. at a flow rate of 30 μL/min for 2 minutes. Varying concentrations of small molecules were injected in increasing concentrations, and every injection was performed in duplicate within each experiment. […]

[1] = target: Biotinylated Grb2 SH2 domain protein (UniProt P62993); assay: SPR (Biacore S51), steady state, compound injected over immobilized b-Grb2 SH2 domain
Biotinylated Grb2 SH2 domain protein, sequence (P62993 60-152 limits assumed): as above

Work on `NC(=O)CC1NC(=O)C2(CCCCC2)NC(=O)[C@@H](CC(=O)O)[C@@H](c2ccc(CP(=O)(O)O)cc2)/C=C/CCC2(CCCCC2)CNC1=O` (some centres unmarked) [compound 24] yielded a Kd (Grb2 SH2 domain protein; first of two Kd values, read-out: Kd (complex binding kinetics, first value)) of 9.3 ± 0.1 nM and a Kd (Grb2 SH2 domain protein; second of two Kd values, read-out: Kd (complex binding kinetics, second value)) of 21300 ± 500 nM.

“Cyclo{[(2R,3R)-3-(4-dihydroxyphosphonomethyl)phenyl-2-(hydroxycarbonylmethyl)pent-4-enyl]-Ac6c-L-Asn-D-AllylGly}-(1-naphthyl)methyl amide (4) (peptide)” gave a Kd [1] of 54.9 nM.

With “Cyclo{[(2R,3R)-3-(4-dihydroxyphosphonomethyl)phenyl-2-(hydroxycarbonylmethyl)pent-4-enyl]-Ac6c-L-Asn-L-AllylGly}-(1-naphthyl)methyl amide (3) (peptide)” the Kd [1] was 22.7 nM.

In the case of “[(2R)-3-(4-Dihydroxyphosphonomethyl)phenyl-2-(hydroxylcarbonylmethyl)propionyl]-Ac6c-L-Asn-Gly-(1-naphthyl)methyl amide (2) (peptide)”, the Kd [1] is reported as 5610 nM.
